The text below walks through data of the RNAGym collection of RNA variant scans (doi:10.1073/pnas.2313332121).

B1: TPR t1 (parent)
chain: GACCAAUCUGCCCUCAGAGCUCGAGAACAUCUUCGGAUGCAGAGGAGGCAGGCUUCGGUGGCGCGAUAGCGCCAACGUCCUCAACCUCCAAUGCAUCCCACCACAUGAUGAUGCCUGAAGAGCCUUGGUUUUUUG

The variants in the data set derive from B1. Description: polymerase ribozyme fitness, log enrichment relative to wild type (log ratio); higher = more active; in vitro selection for triplet polymerase activity. The essentials:
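To select mutant libraries of each subunit of a heterodimeric triplet polymerase ribozyme, built by PCR and transcribed, each was annealed with a biotinylated primer, partner subunit and triplets, then incubated frozen at −7 °C. Extended constructs were gel-excised, captured on streptavidin beads and amplified by RT-PCR, in one round carried out in triplicate. Illumina sequencing of input and output libraries kept genotypes with ≥10 input reads and ≥1 read per output. Fitness is the base-2 logarithm of genotype enrichment relative to wild-type enrichment, from inverse-variance-weighted replicate averages.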
In the case of GACCAAUCUGCCCUCAGAGCUCGAGAACAUCUUGGGAUGCAGAGGAGGCAGGCUUCGGUGGCGCGAUAGCGCCAACGUCCUCAACCUCCAAUGCAUCCCACCACAAGAUGAUGCCUGAAGAGCCUUGGUUUUUUG, the “polymerase ribozyme fitness (log ratio)” value is -4.72. In the case of GACCAAUCUGCACUUAGAGCACGAGAACAUCUUCGGAUACAGAGGAGGCAGGCUUCGGUGGCGCGAUAGCGCCAACGUCCUCAACCUCCAAUGCAUCCCACCACAUGAUGAUGCCUGAAGAGCCUUGGUUUUUUG it was -1.06. In the case of GACCAAUCUGCCCUCAGAGCUCGAGAACAUCUUCGGAUGCAGAGGAGGCAGGCUUCGGUGGCGCGAUAGCGCCAACGUCCUCAACCUCCAAUGCAUCCCACCACAUGAUGAUGCCUGUAGAGUCUUGGUUUUUUG it was -0.82. Next, GACCACUCUGCCCUCAGAGCUCGAGAACAUCUUCGGAUGCAGAGGAGGCAGGCUUCAGUGGGGCGAUAGCGCCAACGUCCUCAACCUCCAAUGCAUCCCACCACAUGAUGAUGCCUGAACAGCCUUGGUUUUUUG: -4.68. On to GACCAAUCUGCCCUCAGAGCUCGAGAACAUCUUCGGAUGCAGAGGAGGCAGCCUCCGGUGGCGCGAUAGCGCCAACGCCCUUAACCUCCAAUGCAUCCCACCACAUGAUGAUGCCUGAAGAGCCUUGGUUUUUUG, for which the “polymerase ribozyme fitness (log ratio)” value was -0.756.

GACCAAUCUGCCCUCAGAGCUCGAGAACAUCUUCGGAUGCAGAAGAGGCAGGCUUCGGUGGCGCGAUAGCGCCAACGUCCUCAACCUCCAAUGCAUCCCAACACAUGAAGAUGCCUGAAGAGCCUUGGUUUUUUG: the “polymerase ribozyme fitness (log ratio)” value was -5.41. Next, GACUAAUCUGCCCUCAGAGCUCGAGAACAUCUUCGGAUGCAGAGGAGGCGGGCUUCGGUGGCGCGAUAGCGCCAACGUCCUCAACCUCCAAUACAUCCCACCACAUGAUGAUGCCUUUAGAGCCUUGGUUUUUUG: -4.55; GACCAAUCUGCCCUCACAGCUCGAGAACAUCUUCGGAUGCUGAGGAGGCAGGCUUCGGUGGCGCGAUAGCGCCAACGUCCUCAACCUCCAAUGCAUCCCACCACAUGAUGAUGCCUGAAGAGCCUUGGUAUUUUG: -4.18. Next, GACCAAUCUGCCCUCAGAGCUCGAGAACAUCUUCGGAUGCAGAGGAGGCAGGCUUCGGUGGAGCGAUAGCGCCAACGUCCUCAACCUCCAAUGCAUCCCAACACAUGAUGCUGCCUGAAGAGCCUUGGUUUUUUG: -1.51. On to GACCAAUCUGCCCUCAGAGAUAGAGAACAUCUUCGGAUGCAGAGGAGGCAGGCUUCGGUGGCGCGAUAUCGCCAACGUCCGCAACCUCCAAUGCAGCCCACCACAUGAUGAUGCCUGAAGUGCCUUGGUUUUUUG, for which the “polymerase ribozyme fitness (log ratio)” value was -5.24.

Consider GACCAAUCUGCCCUCAGAGCUCGAGAACAUCUUCGGAUGCAGAGGAGGCAGGCUUCGGUGGCGCGAUAGAGCCAACGUCCUCAACCUCCAAUGCAUCCCACCACAUGAUGAUGCCUGAAGAGCUUUGGUUUUCUG, for which the “polymerase ribozyme fitness (log ratio)” value is 0.767.

Regarding GACCAAUCUGCCCUCAGAGCUCGAGAACAUCUUCGGAUGCAGAGGAGGCAGGCUUCGGUGGCCCAAUAGCGCCAACGUCCUCAACCUCCAAUGCAUCCCACCACAUGAUGAUGCCUCAGGCGCCUUGGUUUUUUG, the “polymerase ribozyme fitness (log ratio)” value was -7.02. In the case of GACCAGUCUGGUCUCAGAGCUCGAGAACAUCUUCGGAUGGAGAUGAGGCAGGCUUCGGUGGCGCGAUAGCGCCAACGUCCUCAACCUCCAAUACAUCCCACCACAUGAUGAUGCCUGAAGAGCCUUGGUUUUUUG it was -2.75.

GACCAAUCUGCCCUCAGAGCUCGAGAACAUCUUAGGAUGCAGAGGAGGCAGGCUUCGGUGGCGCGAUAGCGCCCACGUCCUCAACCUCGAAUGCAUCCCACCACAUGAUGAUCCCUGCAGAGCCUUGGUUAUUUG: the “polymerase ribozyme fitness (log ratio)” value was -5.57. Next, GACCAGUCUGCCCUCAGAGCUCGAGAACAUCUUCGGAUGCAGAGGAGGCAGGCUUCGGUGGCGCGAUAGCGCCAACGUCCUCAACCUCCAAUGCAUCCCAACACAUGAUGAUGCGUGAAGAGCCUUGGUUUUUUG: -1.96; GACCAGUCUGCCCUCAGAGCCCGAGAACAUCUUCGGAUGCAGAGGAGGCAGGCUUCGGUGCCGCGAUAGCGCCAACGUCCUCAACCUCCAAUGCAUCCCACCACAUGAUGAUGACUGAAGAGCCUUGGUUUUUUG: -3.62; GACCAAUCUGCCCUCAGAGCUCGAGAACAUCUUCGAAUGCAGAGGAGGCAGGCUUCGGUGGCGCGAUAGCGCCAACGUCCUCACCCUCCAAUGCAUCCCACCACAUGAUGAUGCCUAAAGAGCCUUGGUUUUUUG: -2.24.

For GACCAAACUGCCCUCAGAGCUCGAGAACAUCUUCGGAUGCAGAGGAGGCAGGCUUCGGUUGCGCGAUAGCGCCAACGUCCUCAACCUCCAAUGCAUCCCACCAAAUGAUGAUGCCUGAAGAGCCAUGGUUUUUUG, the “polymerase ribozyme fitness (log ratio)” value is -1.13. In the case of GACCAAUCUGCCCUCAGAGCUCGAGAACAUCUUCGGAUGCAGAGGUGGCAGGCUUCGGUGGCGCGAUAGCGCCAACGUCCUCAACCUCCAAUGCAUCCCACCACAAGAUGAUGCCUGAAGAGCCUUGGUUUUUUG it was -1.09. Regarding GACCAAUCUGCCCUCAGAGCUCGAGAACAUCUUCGGAUGUAGAGGAGGCAGGCUUCGGUGGCGCGAUAGCGCCAACGUCCUCAACCUCCAAUGUAUCCCACCACAUGAUGAUGCCUGAAGAGCCUUGGUUUUUUG, the “polymerase ribozyme fitness (log ratio)” value is -1.54. In the case of GACCAAUCUGCCCUCAGAGCUCGAGAACAUCUUCGGAUGCCGAGGAGGCAGGCUUGGGUGGCGCGAUAGCGCCAACGUCCUCAAUCUCCAAUGCAUCCCACUACAUGAUGAUGCCUGAAGAGCCUUGGUUUUUUG it was -5.51; in that of GACCAAUCUGCCCUCAGAGCUCGAGAACAUCUUCGGAUGAAGAGGAGGCAGGUUUCGGUGGCACGAUAGCGCCAACGUCCUCAACCUCCAAUGCAUCCCACCACAUGAUGAUGCCUGAAGAGCCUUGGUUUUUUG, -2.24; in that of GACCAAUCUAGCCUCAGAGCUCGAGAACAUCUUCGGAUGCAGAGGAGGCAGGCUUCGGUGGCGCGAUAGGGCCAACGUCCUCAACCUCCAAUGCAUCCCACCACAUGAUGAUGCCUGAAGAGCCUUGGUUUUUUG, -2.13. Turning to GACCAAUCUGCCCUCAGAGCUCGAGAACAUCUUCGGAUGCAGAGGAGGCAGGCUUCGGUGGCGCGAUAGCGUCAACGUCCUCAACCUGCCGUGCAUCCCACCACAUGAUGAUGCCUGAAGAGCCUUGGUUUUUUG, the “polymerase ribozyme fitness (log ratio)” value is -4.6.

With GACCAAUCUGCCCUCAGAGCUCGAGAACAUCUUCGGAUGCAGAGGAGGCAGGCUUCGGUGGCGCGAUAGCGCCAACGUCCUCAACCUCCAAUGCAUCCCAGCACAUGAUGAUGCCUGAACAGCCUUGGUUUUUUG, the “polymerase ribozyme fitness (log ratio)” value is -0.696. Next, GACCAAUCUGCCCUCAGAGCUCGAGAACAUCUUCGGAAGCAGAGGAGGCAGGCUUCGGUGGCGCGAUAGCGCCAUCGUCCUUCACCUGCAAUGCAUCCCACCACAUGAUGACGCCUGAAGAACCUUGGUUUUUUG: -2.99; GACCAAUCUGCCCUCAGAGCUCGAGAACAUCUUCGGAUGCAGAGGAGGCAGGCUUCGGUGGCGCGAUAGCGCCAACGUCCUCAACCUCCAAUGCAUCCCACCACAUGAUGAUGCCUUAUGAGUCUUGGUUUUUUG: -0.29; GACCAAUCUGCCCUGAGAGCUCGAGAACAUCUUCGGAUGCAGUGGAGGCAGGCUUCGGUGGCGAGAUAGCGCCAACGUCCUCAGGCUCCCAUGCAUCCCACCACAUGAUGAGGCCUGAAGAGCCUUGGUUUCUUG: -6.82. In the case of GACCAAUCUGCCCUCAGAGCUCGAGAACAUCUUCGGAUGCAGAGGAGGUAGGCUUCGGUGGCGCGAUAGCGCCAAUGUCCACAACCUACAAUGCAUCCCACCACAUGAUGAUGCCUGAAGAGCCUUGGUUUUUUG it was -3.72. In the case of GACCAAUCUGCCCUAAGAGCUCGAGAACAUCUUCGGAUGCAGAGGAGGUAGGCUUCGGUGGCGCGAUAGCGACAACGUCCUCAACCUCCAAUGCAUCCCACCACAUGAUGAUGCCUGAAGAGCCUUGGUUUAUUG, the “polymerase ribozyme fitness (log ratio)” value is -1.5. Next, GACCAAUCUGCCCUCAGAGCUCAAGAACAUCUUCGGAUGCAGAGGAGGCAGGUUUCGGUGGCGCGAUAGCGCCAACGUCCUCAACCUCCAAUGCAUCCCACCACAUGAUGAUGCCUGAAGAGCCUUGGUUUUUUG: -5.33. Next, GACCAAUUUGCCCUCAGAGCUUGAGAACAUCUUCGGAUGCAGAGGAGGCAGUCUUCGGUCGCGCGAUAGCGCCAACGUCCUCAACCUCCAAUGCAUCCCACCACAUGAUGAUGCCUGAAGAGCCUUGGUUUUUUG: -4.56. As to GACCAAUCUGCCCUCAGAGCUCGAGAACAUCUUCGGAUGCAGAGGAGGCAGGCUUCGGUGGCGCGAUACCGCCAACGUCCUCAAUCUCCAAUGCAUCCCACCACAUGAUGAUGCCUGAAGAGCCUUGGUUUUUUG, the “polymerase ribozyme fitness (log ratio)” value is -1.8. For the variant GACCAAUCUGACCUCAGAGCUCGAGAACAUCUUCGGAUCCAGAGGAGGCAGGCUUCGGUGGCGCGAUAGCGCCAACGUCCUCAACCUCCAAUGCAUCCCACCACAUGAUCAUGCCUGAAGAGCCUUGGUUUUUUG, the “polymerase ribozyme fitness (log ratio)” value is -5.5. In the case of GACCAAUCUGCCCUCAGAGCUCGAGAACAUCUUCGGAUGCAGAGCAGGCAGGCUUCGGUGGCGCGAUAGCGCCAACGUCCUCAGCCGCCAAUGCAUCCCACCACAUGAUGAUGCCUGAAGAGCCUUGGUUUUUUG it was -3.02; in that of GACCAAUCUGCCCUCAGAGCUCGAGAACAUCUUCGGAUGCAGAGGAGGCAGGCUUAGGUGGCCCGAUAGCGCCAACGUCCUCAACCUCCAAUGCAUCCCACAACAUGAUGAUGCCUGAAGAGCCUUGGUUUUUUG, -4.29; in that of GACCAAUCGGCCCUCAGAGCUCGAGAACAUCUUCGGAUGCAGAGGAGGCAGGCUUCGGUGGCGCGAUAGAGCCAAUGUCCUCAACCUCCAAUGCAUCCCACCACAUGAUGAUGCCUGAAGAGCCUUGGUUUUUUG, -3.45. As for GACCAAUCUGCCCUCAGAGCUCGAGAACAUCUUCGGAUGCAGAGGAGGCAGGCUUCGGUGGCGCGAUAGCACCAACGUCCUCAACCUCCAAUGCAUCCCACCACUUGAUGAUGCCUGAAGAGCCUUGGUUUUUUG, the “polymerase ribozyme fitness (log ratio)” value is -3.04.

As to GACCAAUCUGCCCUGAGAGCUCGAGAACAUCUUCGGAUGCAGAGGAGGCAGGCUUCGGGGGCGCGAUAGCGCCAACGUCCUCAACCUCCAAUGCAUCCCACCACAUGAUGAUGCCUGAAGAGGCUUGGGUUUUUG, the “polymerase ribozyme fitness (log ratio)” value was -1.59. Next, GACCAAUCUGCCCUCAGAGCUCGAGGACAUCUUCGGAUGCAGAGAAGUCAGGCUUCGGUGGCGCGAUAGCGCCAACGUCCUCAACCUCCAAUGCAUCCCACCACAUGAUGAUGCCUGAAGAGCCUUGGUUUUUUG: -3.98; GACCAAUCUGCCCUCAGAGCUCGAGAACAUCUUCGGAUGCAGAGGAGGCAGGCUUCGGUGGCGCGAUAGCGCCAACGUCUUCAACCUUCAAUGCAUCCCACCACAUGAUGGUGACUGAAGAGCCUUGGUUUUUUG: -4.84. In the case of GACCAAUCCGCCCUCAGAGCUCGAAAACAUCUUCGGAUGCAGAGGAGGCAGGCUUCGGUGGCGCGAUAGCGCCAACGUCCUCAACCUCCAAUGCAUCCCACCACAUGAUGAUGCCUGAAGAGCCUUGGUUUUUUG it was -6.01.
